From the supplement of paper PMC10899765

What follows are sequences tested on MCF10A (assay: percent viability (nuclei count relative to siNT); higher = more viable cells). Conditions: 20 nM; 72 h.
Experimental: (§1)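 After 72 h, cells were fixed and stained with Hoechst and anti-fibrillarin, and nucleoli per nucleus were counted with CellProfiler. Values are plate-adjusted percent effect for the one-nucleolus and 5+ nucleoli phenotypes, normalised to siNT (0%) and to the positive controls siNOL11 or siKIF11 (100%), as the mean of biological triplicates. Percent viability is the nuclei count relative to siNT.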

First: CUGUGGGCUCAGCUCUGGG [hsa-miR-4265]
Second: UAAAUUUCACCUUUCUGAGAAGA [hsa-miR-513c-3p]
The percent viability of the first is lower: 27.1% for the first, 28.5% for the second.

Compared with “GUGGACCAGGAUGGCAAGGGCU [hsa-miR-4776-5p]”, GCUGGGAAGGCAAAGGGACGU [hsa-miR-204-3p] is lower in percent viability: 77.7% for the first, 49.7% for the second.

Compared with “AGAAGUAACUACGGUUUUUGCA [hsa-miR-548ao-5p]”, “GCAAAGCACACGGCCUGCAGAGA [hsa-miR-330-3p]” is higher in percent viability: 74.5% for the first, 83.2% for the second.

Compared with GUGGGGCCAGGCGGUGG [hsa-miR-1227-5p], GUGGGCGGGGGCAGGUGUGUG [hsa-miR-1228-5p] is lower in percent viability: 78.5% for the first, 64.8% for the second.

Work on GGGAAAAGGAAGGGGGAGGA [hsa-miR-6124] yielded a percent viability of 180%.

What follows are sequences tested on MCF10A (assay: one-nucleolus phenotype percent effect (relative to siNT 0% and siNOL11 100%); higher = more cells with one nucleolus (ribosome biogenesis inhibition)). Conditions: 20 nM; 72 h.
Experimental: as §1

First: UGGAGUCCAGGAAUCUGCAUUUU [hsa-miR-1289]
Second: GAGCAAUGUAGGUAGACUGUUU [hsa-miR-3908]
The “one-nucleolus phenotype percent effect” value of the first is lower: 78.3% for the first, 89.1% for the second.

Going from GAGGGCAUGCGCACUUUGUCC [hsa-miR-4761-3p] to UGGUCUGCAAAGAGAUGACUGU [hsa-miR-4527], the “one-nucleolus phenotype percent effect” value rises from 85.1% to 104%.

First: AAGGAGAUGCUCAGGCAGAU [hsa-miR-6888-5p]
Second: AAAAGGCAUUGUGGUUUUUG [hsa-miR-548an]
The “one-nucleolus phenotype percent effect” value of the first is lower: 86.2% for the first, 137% for the second.

Going from CUGGCGGAGCCCAUUCCAUGCCA [hsa-miR-4730] to AAGCAGCUGCCUCUGAGGC [hsa-miR-646], the “one-nucleolus phenotype percent effect” value falls from 118% to 70.7%.

Going from UGUGUGGAUCCUGGAGGAGGCA [hsa-miR-3911] to “CACCAGGGCAGAGCAGGGCUGA [hsa-miR-6753-5p]”, the “one-nucleolus phenotype percent effect” value falls from 70.3% to 68.1%.

Going from UCUCCCUUGAGGGCACUUU [hsa-miR-4287] to GGCUGGGUGCUCUUGUGCAGU [hsa-miR-5589-5p], the “one-nucleolus phenotype percent effect” value rises from -43.1% to 71%.

First: CGCGCCGGGCCCGGGUU [hsa-miR-3195]
Second: UCUGCAGGGUUUGCUUUGAG [hsa-miR-1205]
The “one-nucleolus phenotype percent effect” value of the first is lower: 82.1% for the first, 96.8% for the second.

First: CUCGGCGCGGGGCGCGGGCUCC [hsa-miR-1469]
Second: UUUGGGACUGAUCUUGAUGUCU [hsa-miR-3913-5p]
The “one-nucleolus phenotype percent effect” value of the first is higher: 74.3% for the first, -47.3% for the second.

First: UGAAUGGUAAAGCGAUGUCACA [hsa-miR-4790-3p]
Second: CAAUGGCACAAACUCAUUCUUGA [hsa-miR-5197-5p]
The “one-nucleolus phenotype percent effect” value of the first is higher: 71.6% for the first, 71% for the second.

First: CAGCCUCUGCCCUUGGCCUCC [hsa-miR-6877-3p]
Second: ACUGGGCUUGGAGUCAGAAG [hsa-miR-378g]
The “one-nucleolus phenotype percent effect” value of the first is lower: 69.1% for the first, 91.2% for the second.

Compared with “GAGCAGGCGAGGCUGGGCUGAA [hsa-miR-4690-5p]”, GGCGACAAAACGAGACCCUGUC [hsa-miR-1273c] is higher in “one-nucleolus phenotype percent effect” value: 70.8% for the first, 106% for the second.

Going from “AGGAGCUAUCCACUCCAGGUGUCC [hsa-miR-6500-5p]” to UUGCACUUGUCUCAGUGA [hsa-miR-4325], the “one-nucleolus phenotype percent effect” value falls from 70.9% to 70.8%.

Going from GUGUGUGGAAAUGCUUCUGC [hsa-miR-147a] to CUCUCCUCCCGGCUUC [hsa-miR-4279], the “one-nucleolus phenotype percent effect” value falls from 95.9% to 87.9%.

Going from “UUCUCCCACUACCAGGCUCCCA [hsa-miR-4713-5p]” to UCAUAGCCCUGUACAAUGCUGCU [hsa-miR-103b], the “one-nucleolus phenotype percent effect” value rises from -12.1% to 72.9%.

First: CUAGGGGGUUUGCCCUUG [hsa-miR-4278]
Second: CCCCACCUCCUCUCUCCUCAG [hsa-miR-1224-3p]
The “one-nucleolus phenotype percent effect” value of the first is higher: 67.1% for the first, -25.7% for the second.

Compared with GGCUCCUCCUCUCAGGAUGUG [hsa-miR-4268], AGGUAUUGCCACCCUUUCUAGU [hsa-miR-5681b] is higher in “one-nucleolus phenotype percent effect” value: -15.6% for the first, 90.7% for the second.

First: GCCCCGGCGCGGGCGGGUUCUGG [hsa-miR-4707-5p]
Second: GUAGGUGACAGUCAGGGGCGG [hsa-miR-6800-5p]
The “one-nucleolus phenotype percent effect” value of the first is lower: -25% for the first, 1.11% for the second.

Going from CUCACUGAACAAUGAAUGCAA [hsa-miR-181b-3p] to CUCUAGAGGGAAGCGCUUUCUG [hsa-miR-522-5p], the “one-nucleolus phenotype percent effect” value rises from -19.6% to -5.68%.

Compared with AAAGACAUAGGAUAGAGUCACCUC [hsa-miR-641], “AAAAUGGUGCCCUAGUGACUACA [hsa-miR-224-3p]” is higher in “one-nucleolus phenotype percent effect” value: -15.4% for the first, 12.8% for the second.

First: AGUGGGGUGGGACCCAGCUGUU [hsa-miR-6742-5p]
Second: GUCCCUGAGUGUAUGUGGUG [hsa-miR-670]
The “one-nucleolus phenotype percent effect” value of the first is higher: 43.2% for the first, -27.4% for the second.

First: UAACAAACACCUGUAAAACAGC [hsa-miR-5688]
Second: AGCCCCCUGGCCCCAAACCC [hsa-miR-4313]
The “one-nucleolus phenotype percent effect” value of the first is lower: -7.14% for the first, -4.86% for the second.

First: UGGCGGGGGUAGAGCUGGCUGC [hsa-miR-6787-5p]
Second: GGUGGGGGCUGUUGUUU [hsa-miR-4447]
The “one-nucleolus phenotype percent effect” value of the first is lower: 30% for the first, 38.7% for the second.

First: CAUCAGCACCCUAUGUCCUUUCU [hsa-miR-3617-3p]
Second: UCCCACUACUUCACUUGUGA [hsa-miR-4301]
The “one-nucleolus phenotype percent effect” value of the first is higher: 29.5% for the first, -19.4% for the second.

Compared with UAUGGUACUCCUUAAGCUAAC [hsa-miR-5579-5p], “GGUUCCCUCUCCAAAUGUGUCU [hsa-miR-642b-5p]” is higher in “one-nucleolus phenotype percent effect” value: -26.5% for the first, 11.8% for the second.

First: CGGGUGGAUCACGAUGCAAUUU [hsa-miR-363-5p]
Second: AAACUAAUAUACCCAUAUUCUG [hsa-miR-5583-5p]
The “one-nucleolus phenotype percent effect” value of the first is higher: -21.2% for the first, -23.4% for the second.

Compared with AACGCCAUUAUCACACUAAAUA [hsa-miR-122-3p], UCUGAAUAGAGUCUGAAGAGU [hsa-miR-4427] is lower in “one-nucleolus phenotype percent effect” value: -17.4% for the first, -23.1% for the second.

Going from CUGUGGGCUCAGCUCUGGG [hsa-miR-4265] to “UAAAUUUCACCUUUCUGAGAAGA [hsa-miR-513c-3p]”, the “one-nucleolus phenotype percent effect” value falls from 42.3% to 15.7%.

Going from “GUGGACCAGGAUGGCAAGGGCU [hsa-miR-4776-5p]” to GCUGGGAAGGCAAAGGGACGU [hsa-miR-204-3p], the “one-nucleolus phenotype percent effect” value falls from -5.58% to -9.16%.

Going from “AGAAGUAACUACGGUUUUUGCA [hsa-miR-548ao-5p]” to “GCAAAGCACACGGCCUGCAGAGA [hsa-miR-330-3p]”, the “one-nucleolus phenotype percent effect” value rises from -16.5% to -7.99%.

Compared with GUGGGGCCAGGCGGUGG [hsa-miR-1227-5p], GUGGGCGGGGGCAGGUGUGUG [hsa-miR-1228-5p] is higher in “one-nucleolus phenotype percent effect” value: -31% for the first, -5.58% for the second.

GGGAAAAGGAAGGGGGAGGA [hsa-miR-6124] was tested, and the “one-nucleolus phenotype percent effect” value was -29.7%.
